From patent US20090074793A1 (published 2009) come the findings set out here.

Test [1] addresses T1, mfIL-4R of the cellular bioassay (monkey (Macaca fascicularis), UniProt P24394 26-231 (human entry)).
T1 chain: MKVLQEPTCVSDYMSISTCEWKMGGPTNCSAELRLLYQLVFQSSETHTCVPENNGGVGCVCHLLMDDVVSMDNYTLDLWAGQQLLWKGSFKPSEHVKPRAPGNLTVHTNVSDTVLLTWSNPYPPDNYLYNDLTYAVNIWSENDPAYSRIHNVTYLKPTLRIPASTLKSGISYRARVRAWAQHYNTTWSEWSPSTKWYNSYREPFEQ
In words: cell-based or functional assay.

Test [2] concerns the target T2, hIL-4R on engineered HK293 cells (human STAT6 and STAT6 luciferase reporter) (human, UniProt P24394 26-232).
T2 sequence: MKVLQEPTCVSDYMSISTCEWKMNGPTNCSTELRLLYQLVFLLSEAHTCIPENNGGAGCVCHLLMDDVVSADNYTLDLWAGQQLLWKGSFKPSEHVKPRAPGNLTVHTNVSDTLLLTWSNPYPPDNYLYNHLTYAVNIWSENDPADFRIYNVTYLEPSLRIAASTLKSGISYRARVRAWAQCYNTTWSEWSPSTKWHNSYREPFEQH
Description: cell-based or functional assay.

The target of test [3] is T3, monomeric hIL-4R (R&D Systems) (human, UniProt P24394 26-232, limits assumed).
T3 construct: Bought protein (R&D Systems); also called human IL-4 receptor alpha
T3 sequence: T2 sequence
In words: SPR (BIACORE 2000), antibody captured on anti-hFc, monomeric hIL-4R, 25° C. As for the experimental part: (§1) Briefly, antibody was captured on a goat anti-hFc polyclonal antibody surface created through direct coupling to a BIACORE™ chip to form a captured antibody surface. Various concentrations (ranging from 50 nM to 12.5 nM) of monomeric hIL-4R (R&D Systems) or dimeric hIL-4R-mFc were injected over the captured antibody surface at 10 μl/min for 2.5 min at either 25° C. or 37° C. Binding of antigen to antibody and dissociation of the bound complex, were monitored in real time. Equilibrium dissociation constants (KD) and dissociation rate constants were ascertained by performing kinetic analysis using BIA evaluation software. BIA evaluation software was also used to calculate the half-life of antigen/antibody complex dissociation (T_{1/2}). […] Control: a fully human anti-IL-4R antibody (U.S. Pat. No. 7,186, 809; SEQ ID NOs:10 and 12).
A general note: In SPR one partner is held on a chip, and binding of the other changes the refractive index at the surface.

Test [4] concerns the target T3, monomeric hIL-4R (R&D Systems). Description: SPR (BIACORE 2000), antibody captured on anti-hFc, monomeric hIL-4R, 37° C. On the procedure:
as §1

In test [5] the target is T4, dimeric hIL-4R-mFc (human, UniProt P24394 26-232).
T4 construct: not shown: mFc (mouse Fc)
T4 sequence: T2 sequence
In words: SPR (BIACORE 2000), antibody captured on anti-hFc, dimeric hIL-4R-mFc, 25° C. As for the experimental part:
as §1

The target in test [6] is T4, dimeric hIL-4R-mFc. Description: SPR (BIACORE 2000), antibody captured on anti-hFc, dimeric hIL-4R-mFc, 37° C. On the procedure: as §1
For test [7], the target named is T4, dimeric hIL-4R-mFc. In words: ELISA-based solution competition, 25 pM hIL-4R-mFc, free receptor on biotin-hIL4 plate. As for the experimental part:
(§2) Antibody-antigen binding affinity was also assessed using an ELISA-based solution competition assay. Briefly, a 96-well MAXISORP™ plate was first coated with 5 μg/ml avidin overnight followed by BSA blocking for 1 hr. […] The plate was used to measure either free hIL-4R-mFc (dimeric hIL-4R) or free hIL-4R-myc-myc-his (hIL4R-mmh, monomeric hIL4R) in the antibody titration sample solutions. […] After 1 hr binding, the plate was washed and bound hIL-4R-mFc was detected using either an HRP-conjugated mouse anti-mFc polyclonal antibody or an HRP-conjugated goat anti-myc polyclonal antibodies. IC₅₀ values were determined (Table 2).

The target of a further test is T5, hIL-4R-myc-myc-his (human, UniProt P24394 26-232).
T5 construct: also called hIL-4R-mmh; hIL4R-mmh; not shown: myc-myc-his tag
T5 sequence: T2 sequence
In words: ELISA-based solution competition, 200 pM hIL-4R-mmh, free receptor on biotin-hIL4 plate. On the procedure: as §2

B1: H4H098P (antibody, V domains shown)
VH: EVQLVESGGGLEQPGGSLRLSCAGSGFTFRDYAMTWVRQAPGKGLEWVSSISGSGGNTYYADSVKGRFTISRDNSKNTLYLQMNSLRAEDTAVYYCAKDRLSITIRPRYYGLDVWGQGTTVTVS
VL: DIVMTQSPLSLPVTPGEPASISCRSSQSLLYSIGYNYLDWYLQKSGQSPQLLIYLGSNRASGVPDRFSGSGSGTDFTLKISRVEAEDVGFYYCMQALQTPYTFGQGTKLEIK
Regarding B1, the “IC50, bioassay in the presence of 360 fM mfIL-4” value in test [1] worked out at 150 nM. In test [2], the “IC50 (pM), STAT6 luciferase bioassay, 10 pM hIL-4” value (“IC50 (pM) … 10 pM hIL-4” for short) was 27 pM and the “IC50 (pM), STAT6 luciferase bioassay, 40 pM hIL-13” value (“IC50 (pM) … 40 pM hIL-13” below) is 25 pM.

B2: H4H083P (antibody, V domains shown)
VH: EVQLVESGGGLVQPGRSLRLSCEASGFTFDDYAMHWVRQAPGKGLEWVSGLSRTSVSIGYADSVKGRFTISRDNAKNSLYLEMNSLRPEDTALYYCAKWGTRGYFDYWGQGTLVTVSS
VL: DIQMTQSPSSVSASVGDRVTITCRASQDISIWLAWYQQSPGKAPKLLINVASRLQSGVPSRFSGSGSGTDFTLTINSLQPEDFVTYYCQQANSFPITFGQGTRLEIK
notes: Human anti-hIL-4R antibody captured via anti-hFc
On to B2, for which the “IC50 (pM) … 10 pM hIL-4” value in test [2] is 25 pM. Besides, in test [2], the “IC50 (pM) … 40 pM hIL-13” value was found to be 19 pM. Besides, the Kd in test [3] was 0.048 nM; in test [4], 0.183 nM; with dimeric hIL-4R-mFc [6], 0.0381 nM. The T1/2 in test [3] amounted to 361 min; in test [4] it was 87 min; in the test with dimeric hIL-4R-mFc [5], 245 min; in the test with dimeric hIL-4R-mFc [6], 163 min. The 50% inhibitory concentration (IC50) with dimeric hIL-4R-mFc [7] is 0.0096 nM; with hIL-4R-myc-myc-his it was 0.08 nM.

B3: H4H095P (antibody, V domains shown)
VH: QVQLVESGGGVVQPGRSLRLSCAASGFTFRSYGMHWVRQAPGKGLEWVAVISYDGSNKYYIDSVKGRFTISRDNSKNTLNLQMNSLRLEDTAVYYCAKEGRGGFDYWGQGTLVTVSS
VL: DIQMTQSPSSLSASVGDRVTITCRASQVINNYLAWFQQKPGKVPKSLIHAASSLQSGVPSKFSGSGSGTDFTLTISSLQPEDFATYYCQQYNSHPWTFGQGTKVEIK
notes: as for B2
As to B3, the “IC50 (pM) … 10 pM hIL-4” value in test [2] was 98 pM. Moreover, in test [2], the “IC50 (pM) … 40 pM hIL-13” value is 86 pM. For the same molecule, the Kd in test [3] stood at 0.274 nM; in test [4] it was 0.437 nM; with dimeric hIL-4R-mFc [5], 0.302 nM; with dimeric hIL-4R-mFc [6], 0.314 nM. Also, the T1/2 in test [3] was found to be 131 min; in test [4], 49 min; with dimeric hIL-4R-mFc [5] it was 156 min; with dimeric hIL-4R-mFc [6] it was 116 min. The values for the IC50 in the test with dimeric hIL-4R-mFc [7] and with hIL-4R-myc-myc-his were 0.04 nM and 0.09 nM, respectively.

As a reminder, the Kd is the constant that tells how readily two partners part at equilibrium. By IC50 is commonly meant the concentration needed to halve the response being measured.
